According to patent publication US20210347873A1 (SHANGHAI PHARMAEXPLORER, published 2021):
Substitutions are numbered along the chain they refer to.

T1: human APRIL protein (human, UniProt O75888 105-250, limits assumed)
T1 construct: Bought protein; also called recombinant APRIL protein
T1 sequence (looked up): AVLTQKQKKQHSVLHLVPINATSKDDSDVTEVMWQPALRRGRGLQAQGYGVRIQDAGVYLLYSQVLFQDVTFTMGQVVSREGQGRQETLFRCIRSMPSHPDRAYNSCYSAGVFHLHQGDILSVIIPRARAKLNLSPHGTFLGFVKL

B1: c97E7B3F2 (antibody, V domains shown)
VH: EVQLQQSGPELVKSGASVKISCKASGYTFTDHKMHWVKQSHGKSLEWIGYISPYNGGTGYNQKFKSKVTLTVDISSSTAYMELRSLTSEDSAVYYCARWGFYDVMDSWGQGTSVTVSS
VL: DVLLTQTPLSLPVSLGDQASISCRSSQTIVHIIGDTYLEWYLQKPGQSPKLLIYKVSNRFSGVPDRFSGSGAGTDFTLKISRVEAEDLGVYYCFQGSHVPRTFGGGTKLEIK
B2: c89A2G5E7 (antibody, V domains shown)
VH: QVQLKESGPGLVAPSQSLSITCTVSGLSLNSHDISWIRQPPGKGLEWLGVIWSGGGTKYNSAFMSRLSISKDNSKSQVFLKMNSLHTDDTAIYYCVRTPSMITYSAMDYWGQGTSVTVSS
VL: EIVLTQSPALMAASPGEKVTITCSVSSSISSRNLHWYQQKSQTSPKAWIHATSNLASGVPVRFSGSGSGTSYSLTISSMEAEDAATYYCQQWSSYPLTFGSGTKLEIK
B3: humanized BLyS antibody h8E7D9C7F5-1 (antibody, human IgG1, V domains shown)
VH: EVQLVQSGAEVKKPGASVKVSCKASGYTFTSYGISWVRQAPGQGLEWMGEIYPRSGNTYYNEKFKGRVTMTTDTSTSTAYMELRSLRSDDTAVYYCARSGPITTLVATDYGMDYWGQGTTVTVSS
VL: DIVMTQSPDSLAVSLGERATINCRASKSVSTSSYSYMHWYQQKPGQPPKLLIKFASNLESGVPDRFSGSGSGTDFTLTISSLQAEDVAVYYCQHSREFPYTFGGGTKVEIK
B4: c20D1B6E9E5 (antibody, V domains shown)
VH: EVQLQQSVAELVRPGASVKLSCTASDFNIKNTYIHWVKQRPEQGLEWIGRIDPVNGNTKYAPKFQDKATIIVDTYSNTAYLQLSSLASEDTAVYYCARWPITTIVATDWYFDVWGTGTTVTVSS
VL: DVLMTQTQLALPVRLGEQASISCRSSQSIVNSNGNTYLEWYLQKPGQSPKLLIYKVSNRFSGVPDRFSGSGSGTDFTLKISRVEAEDLGVYYCFQGSHVPWTFGGGTKLEIK
B5: 8E7D9C7F5 (antibody, V domains shown)
VH: QVQLQQSGVELARPGASVKLSCKASGYTFTSYGISWVKQRTGQALEWIGEIYPRSGNTYYNEKFKGKATLTADKSSSTAYMELRSLTSEDSAVYFCARSGPITTLVATDYGMDYWGQGTSVTVSS
VL: DIVLTQSPASLAVSLGQRATISCRASKSVSTSSYSYMHWYQQKPGQPPKLLIKFASNLESGVPARFSGSGSGTDFTLNIHPVEEEDAATYYCQHSREFPYTFGGGTKLEIK
B6: mouse-human chimeric BLyS antibody c8E7D9C7F5 (antibody, human IgG1, V domains shown)
VH: B5 VH
VL: B5 VL
B7: humanized BLyS antibody h97A3C2H4-9 (antibody, human IgG1, V domains shown)
VH: EVQLVESGGGLVQPGGSLRLSCAASGFTFSTYTMSWVRQAPGKRLEWVAYISYGGGSTSYPDTVKGRFTISRDNAKNSLYLQMNSLRAEDTAVYYCTRHVTVVENSMDYWGQGTTVTVSS
VL: DILLTQSPDFQSVTPKEKVTITCRASQSIGTSIHWYQQKTDQSPKLLIKYVSESFSGTPSRFSGSGSGTDFTLTINSLEAEDAATYYCQQTHSWPWTFGGGTKVEIK
B8: mouse-human chimeric BLyS antibody c97A3C2H4 (antibody, human IgG1, V domains shown)
VH: B7 VH with Q3K, R19K, A40T, G42E, S78T, N84S, R87K, A88S, V93I, T115S
VL: DILLTQSPDILSVSPGERVSFSCRASQSIGTSIHWYQQRTNGSPRLLIKYVSESFSGTPSRFSGSGSGTAFTLTINSVESEDIADYYCQQTHSWPWTFGGGTKLEIK

Tests used:
[1] = biological target: T2, extracellular domain of human BLyS protein (hBLyS-ECD), His-tagged, Ala134-Leu285 (human, UniProt Q9Y275 134-285); assay: SPR (Biacore), antibody captured by anti-human Fc, hBLyS-ECD as analyte
T2 construct: Expressed in HEK293 cells and purified on a Ni column; also called immunogen
T2 sequence (Q9Y275 134-285): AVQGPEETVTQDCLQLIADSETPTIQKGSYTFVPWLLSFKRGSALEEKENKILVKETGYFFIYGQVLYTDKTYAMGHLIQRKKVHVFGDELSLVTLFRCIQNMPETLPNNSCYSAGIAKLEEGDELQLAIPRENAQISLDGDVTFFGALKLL

[2] = biological target: His-tagged extracellular domain of human BLyS protein (hBLyS-ECD), Ala134-Leu285 (human, UniProt Q9Y275 134-285); assay: cell-based or functional assay
human APRIL protein [3] = biological target: T1, human APRIL protein; assay: ELISA, coated APRIL; antibody 2.67 nM
Method: (§1) To test whether the BLyS antibody cross-reacted with human APRIL protein, APRIL protein (purchased from R & D Systems) was first diluted to a final concentration of 1.0 μg/mL with PBS, and then 50 μL of which per well was aliquoted into a 96-well ELISA plate, and the plate was subsequently sealed with plastic film and incubated at 4° C. overnight. On the next day the plate was rinsed four times with the plate washing buffer [PBS buffer containing 0.0500 (v/v) Tween20] and a blocking solution [PBS buffer containing 0.05 (v/v) Tween20 and 1 (w/w) BSA] was added, then the protein was blocked at 37° C. for 2 hours. The blocking solution was removed and 100 μL per well of the lead antibodies prepared in Embodiment 1 and 2 were added in. After incubation for 1 hour at 37° C., the plate was rinsed four times with the plate washing buffer [PBS buffer containing 0.05 (v/v) Tween20]. HRP-labeled (horseradish peroxidase) secondary antibody (purchased from Sigma) was added in and incubated at 37° C. for 1 hour. The plate was then rinsed four times with the plate washing buffer [PBS buffer containing 0.050 (v/v) Tween20]. 100 μL of TMB substrate was aliquoted into each well and after incubation at room temperature for 5 minutes, 100 μL of stop solution (1.0 N HCl) was aliquoted into each well. A₄₅₀ₙₘ values were read via an ELISA plate reader (SpectraMax M5e purchased from Molecular Devices) and the results were shown in FIGS. 6A-6B and Table 11. […] As used herein, the IgG control is human IgG and the data in the table is GD number at 450 nm.

human APRIL protein [4] = biological target: T1, human APRIL protein; assay: ELISA, coated APRIL; antibody 0.0213 nM
Method: as §1

human APRIL protein [5] = biological target: T1, human APRIL protein; assay: ELISA, coated APRIL; antibody 0.107 nM
Method: as §1

human APRIL protein [6] = biological target: T1, human APRIL protein; assay: ELISA, coated APRIL; antibody 0 nM (blank)
Method: as §1

human APRIL protein [7] = biological target: T1, human APRIL protein; assay: ELISA, coated APRIL; antibody 0.534 nM
Method: as §1

human APRIL protein [8] = biological target: T1, human APRIL protein; assay: ELISA, coated APRIL; antibody 66.7 nM
Method: as §1

human APRIL protein [9] = biological target: T1, human APRIL protein; assay: ELISA, coated APRIL; antibody 13.3 nM
Method: as §1

human APRIL protein [10] = biological target: T1, human APRIL protein; assay: ELISA, coated APRIL; antibody 0.00427 nM
Method: as §1

Binder	Kd [1] [pM]	koff [1] [s⁻¹]	kon [1] [M⁻¹ s⁻¹]	mouse B lymphocyte proliferation stimulated by hBLyS-ECD (viable cell signal) at 0 nM antibody [2]	mouse B lymphocyte proliferation stimulated by hBLyS-ECD (viable cell signal) at 0.000256 nM antibody [2]	mouse B lymphocyte proliferation stimulated by hBLyS-ECD (viable cell signal) at 0.00128 nM antibody [2]	mouse B lymphocyte proliferation stimulated by hBLyS-ECD (viable cell signal) at 0.0064 nM antibody [2]	mouse B lymphocyte proliferation stimulated by hBLyS-ECD (viable cell signal) at 0.032 nM antibody [2]	mouse B lymphocyte proliferation stimulated by hBLyS-ECD (viable cell signal) at 0.16 nM antibody [2]	mouse B lymphocyte proliferation stimulated by hBLyS-ECD (viable cell signal) at 0.8 nM antibody [2]	mouse B lymphocyte proliferation stimulated by hBLyS-ECD (viable cell signal) at 4 nM antibody [2]	mouse B lymphocyte proliferation stimulated by hBLyS-ECD (viable cell signal) at 20 nM antibody [2]	mouse B lymphocyte proliferation stimulated by hBLyS-ECD (viable cell signal) at 100 nM antibody [2]	other results
B1	147	4.89e-05	334000											
B2	85.7	1.82e-05	213000											
B3				3480 OD450 nm (as headed)	3000 OD450 nm (as headed)	3120 OD450 nm (as headed)	3200 OD450 nm (as headed)	2970 OD450 nm (as headed)	2730 OD450 nm (as headed)	951 OD450 nm (as headed)	209 OD450 nm (as headed)	152 OD450 nm (as headed)	131 OD450 nm (as headed)	
B4	642	0.000211	329000											
B5														OD450 nm (human APRIL protein [3]): 0.0703; OD450 nm (human APRIL protein [4]): 0.0565; OD450 nm (human APRIL protein [5]): 0.0558; OD450 nm (human APRIL protein [6]): 0.0551; OD450 nm (human APRIL protein [7]): 0.0599; OD450 nm (human APRIL protein [8]): 0.464; OD450 nm (human APRIL protein [9]): 0.116; OD450 nm (human APRIL protein [10]): 0.0571
B6				3640 OD450 nm (as headed)	3310 OD450 nm (as headed)	3360 OD450 nm (as headed)	3020 OD450 nm (as headed)	2950 OD450 nm (as headed)	3200 OD450 nm (as headed)	408 OD450 nm (as headed)	187 OD450 nm (as headed)	187 OD450 nm (as headed)	116 OD450 nm (as headed)	
B7				3590 OD450 nm (as headed)	3080 OD450 nm (as headed)	3540 OD450 nm (as headed)	2970 OD450 nm (as headed)	2960 OD450 nm (as headed)	2770 OD450 nm (as headed)	1110 OD450 nm (as headed)	217 OD450 nm (as headed)	137 OD450 nm (as headed)	127 OD450 nm (as headed)	
B8				3450 OD450 nm (as headed)	3110 OD450 nm (as headed)	2900 OD450 nm (as headed)	3050 OD450 nm (as headed)	2960 OD450 nm (as headed)	2890 OD450 nm (as headed)	429 OD450 nm (as headed)	223 OD450 nm (as headed)	159 OD450 nm (as headed)	169 OD450 nm (as headed)	
